From paper doi:10.1101/2022.04.11.487922
Where a chain is given by its changes, count along the chain named. Read-outs that look alike come from different tables or passages of the source.

Legend:
[1] = target: T1, p50 (in p50/RelA);RelA FL (in p50/RelAFL) (Mus musculus;Mus musculus, UniProt P25799;Q04207 39-350;19-549, |); assay: fluorescence anisotropy
[2] = target: T2, p50 (in p50/RelA);RelA RHD (in p50/RelARHD) (Mus musculus;Mus musculus, UniProt P25799;Q04207 39-350;19-321, |); assay: fluorescence anisotropy
[3] = target: T1, p50 (in p50/RelA);RelA FL (in …); assay: fluorescence anisotropy; remark: listed apart in the source
[4] = target: T2, p50 (in p50/RelA);RelA RHD (in …); assay: fluorescence anisotropy; remark: listed apart in the source
[5] = target: T1, p50 (in p50/RelA);RelA FL (in …); assay: fluorescence anisotropy; remark: listed apart in the source
[6] = target: T2, p50 (in p50/RelA);RelA RHD (in …); assay: fluorescence anisotropy; remark: listed apart in the source
[7] = target: T1, p50 (in p50/RelA);RelA FL (in …); assay: EMSA
[8] = target: T2, p50 (in p50/RelA);RelA RHD (in …); assay: EMSA
[9] = target: T1, p50 (in p50/RelA);RelA FL (in …); assay: EMSA; remark: listed apart in the source
[10] = target: T2, p50 (in p50/RelA);RelA RHD (in …); assay: EMSA; remark: listed apart in the source
[11] = target: T1, p50 (in p50/RelA);RelA FL (in …); assay: EMSA; remark: listed apart in the source
[12] = target: T2, p50 (in p50/RelA);RelA RHD (in …); assay: EMSA; remark: listed apart in the source
[13] = target: T1, p50 (in p50/RelA);RelA FL (in …); assay: fluorescence anisotropy; remark: listed apart in the source
[14] = target: T2, p50 (in p50/RelA);RelA RHD (in …); assay: fluorescence anisotropy; remark: listed apart in the source
[15] = target: T2, p50 (in p50/RelA);RelA RHD (in …); assay: EMSA; remark: listed apart in the source
[16] = target: T1, p50 (in p50/RelA);RelA FL (in …); assay: EMSA; remark: listed apart in the source
[17] = target: T1, p50 (in p50/RelA);RelA FL (in …); assay: EMSA; remark: listed apart in the source
[18] = target: T2, p50 (in p50/RelA);RelA RHD (in …); assay: EMSA; remark: listed apart in the source

T2 sequence (P25799 39-350, chain 1 of 2): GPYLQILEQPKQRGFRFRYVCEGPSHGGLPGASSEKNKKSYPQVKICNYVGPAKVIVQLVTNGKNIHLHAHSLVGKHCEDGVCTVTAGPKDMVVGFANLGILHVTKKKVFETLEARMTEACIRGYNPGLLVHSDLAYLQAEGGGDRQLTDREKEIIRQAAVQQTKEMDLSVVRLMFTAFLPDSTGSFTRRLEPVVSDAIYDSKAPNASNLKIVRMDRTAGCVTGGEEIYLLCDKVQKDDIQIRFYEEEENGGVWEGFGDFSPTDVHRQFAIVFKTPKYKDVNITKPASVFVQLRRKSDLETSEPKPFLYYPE
T2 sequence (Q04207 19-321, chain 2 of 2): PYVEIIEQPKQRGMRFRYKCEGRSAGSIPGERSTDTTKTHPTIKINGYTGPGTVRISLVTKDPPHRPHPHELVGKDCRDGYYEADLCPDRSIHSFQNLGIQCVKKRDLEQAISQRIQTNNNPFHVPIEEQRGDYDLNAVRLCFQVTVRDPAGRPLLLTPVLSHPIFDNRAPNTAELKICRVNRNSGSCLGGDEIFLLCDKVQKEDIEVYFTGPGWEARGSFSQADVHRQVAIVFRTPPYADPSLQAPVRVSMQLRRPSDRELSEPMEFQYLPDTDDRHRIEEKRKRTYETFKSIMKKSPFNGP
T1 sequence (P25799 39-350, chain 1 of 2): as the sequence (P25799 39-350, chain 1 of 2) above
T1 sequence (Q04207 19-549, chain 2 of 2): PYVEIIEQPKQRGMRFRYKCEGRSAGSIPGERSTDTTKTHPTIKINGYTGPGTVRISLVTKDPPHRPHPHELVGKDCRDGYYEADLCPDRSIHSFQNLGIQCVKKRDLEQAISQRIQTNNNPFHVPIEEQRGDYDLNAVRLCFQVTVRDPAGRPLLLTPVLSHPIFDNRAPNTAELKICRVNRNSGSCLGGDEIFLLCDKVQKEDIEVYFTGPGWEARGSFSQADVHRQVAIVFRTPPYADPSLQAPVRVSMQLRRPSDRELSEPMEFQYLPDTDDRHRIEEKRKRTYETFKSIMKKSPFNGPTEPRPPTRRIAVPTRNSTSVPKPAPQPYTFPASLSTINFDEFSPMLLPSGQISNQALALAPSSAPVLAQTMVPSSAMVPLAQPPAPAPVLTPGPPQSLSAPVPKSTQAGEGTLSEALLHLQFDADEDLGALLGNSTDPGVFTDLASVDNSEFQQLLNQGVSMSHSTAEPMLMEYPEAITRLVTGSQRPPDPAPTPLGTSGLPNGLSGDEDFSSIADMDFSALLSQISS

B1: HIV LTR tandem dsDNA (anisotropy) (dsDNA)
DNA 1: CAAGGGACTTTCCGCTGGGGACTTTCCAGG
DNA 2: CCTGGAAAGTCCCCAGCGGAAAGTCCCTTG
modifications: 5' 5AmMC6
With B1 the Kd [1] was 1.3 ± 0.4 nM and the Kd [2] was 1.7 ± 0.4 nM.

B2: NFKBIA tandem dsDNA (anisotropy), forward label (dsDNA)
DNA 1: CTTGGAAATTCCCCGAGCCTGACCCCGCCCCAGAGAAATCCCCAG
DNA 2: CTGGGGATTTCTCTGGGGCGGGGTCAGGCTCGGGGAATTTCCAAG
modifications: 5' 5AmMC6
In the case of B2, the Kd [3] is reported as 1.5 ± 0.7 nM and the Kd [4] is reported as 1.7 ± 0.5 nM.

B3: NFKBIA tandem dsDNA (anisotropy), reverse label (dsDNA)
DNA 1: B2 DNA 1
DNA 2: B2 DNA 2
modifications: 5' 5AmMC6
B3 was tested, and the Kd [5] was 5.1 ± 0.4 nM and the Kd [6] was 10 ± 2 nM.

B4: HIV LTR, site 1 scrambled (dsDNA)
DNA 1: AAGTCGACTGTCGCTGGGGACTTTCCAGGGAGG
DNA 2: CCTCCCTGGAAAGTCCCCAGCGACAGTCGACTT
B4: binds [7]; binds [8].

B5: HIV LTR, site 2 scrambled (dsDNA)
DNA 1: AAGGGACTTTCCGCTGGTCGACTGTCAGGGAGG
DNA 2: CCTCCCTGACAGTCGACCAGCGGAAAGTCCCTT
B5: binds [9]; binds [10].

B6: NFKBIA, site 2 scrambled (dsDNA)
DNA 1: CTGACTGGCTTGGAAATTCCCCGAGCCTGACCCCGCCCCAAGCACTGACACAGCCAGCG
DNA 2: CGCTGGCTGTGTCAGTGCTTGGGGCGGGGTCAGGCTCGGGGAATTTCCAAGCCAGTCAG
B6: binds [11]; binds [12].

GTAGACGTGCTCCCCCAGCACGTCTAC (structured_DNA, 5' 5AmMC6) [Random hairpin] was tested, and the Kd [13] was 130 ± 40 nM and the Kd [14] was 1500 ± 100 nM.

B7: NFKBIA tandem kB 59 bp (EMSA) (dsDNA)
DNA 1: CTGACTGGCTTGGAAATTCCCCGAGCCTGACCCCGCCCCAGAGAAATCCCCAGCCAGCG
DNA 2: CGCTGGCTGGGGATTTCTCTGGGGCGGGGTCAGGCTCGGGGAATTTCCAAGCCAGTCAG
B7: binds [15]; binds [16].

B8: NFKBIA, site 1 scrambled (dsDNA)
DNA 1: B7 DNA 1 with G12A, A14T, A15C, T17C, T18G, C19T, C21A
DNA 2: B7 DNA 2 with G39T, G41A, A42C, A43G, T45G, T46A, C48T
B8: binds [11]; binds [12].

B9: HIV LTR tandem kB 33 bp (EMSA) (dsDNA)
DNA 1: AAGGGACTTTCCGCTGGGGACTTTCCAGGGAGG
DNA 2: CCTCCCTGGAAAGTCCCCAGCGGAAAGTCCCTT
B9: binds [17]; binds [18].
